Experimental findings from article PMC2930196 are described below.

This test has as its target Phospholipid transfer protein (PLTP) in human plasma (human (endogenous in plasma)) (UniProt P55058). The test can be described thus: co-IP.
UniProt P55058, sequence (P55058 18-493): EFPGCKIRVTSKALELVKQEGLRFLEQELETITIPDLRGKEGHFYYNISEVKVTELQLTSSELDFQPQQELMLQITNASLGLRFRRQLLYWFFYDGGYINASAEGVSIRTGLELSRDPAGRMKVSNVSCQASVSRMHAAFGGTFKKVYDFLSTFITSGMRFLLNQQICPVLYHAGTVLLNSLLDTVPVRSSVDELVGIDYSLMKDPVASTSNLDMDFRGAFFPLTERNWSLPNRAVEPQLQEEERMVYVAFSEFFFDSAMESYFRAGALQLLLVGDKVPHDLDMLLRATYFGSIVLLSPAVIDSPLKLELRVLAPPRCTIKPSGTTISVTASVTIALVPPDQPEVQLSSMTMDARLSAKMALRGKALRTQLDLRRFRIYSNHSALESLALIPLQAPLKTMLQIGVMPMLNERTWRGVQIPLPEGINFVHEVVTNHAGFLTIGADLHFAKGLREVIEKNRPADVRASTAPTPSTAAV

In the case of “Clusterin (apoJ) in human plasma (natural protein)”, the molar ratio of clusterin, PLTP and apoA-I in the isolated PLTP complexes (ELISA) was found to be 5.
